Experimental data reported in article PMC12441119 (Cell Discovery, 2025).

B1: STK4 (residues 1–487) K59R (enzyme, human, UniProt Q13043 1-487, looked up)
chain: METVQLRNPPRRQLKKLDEDSLTKQPEEVFDVLEKLGEGSYGSVYKAIHKETGQIVAIRQVPVESDLQEIIKEISIMQQCDSPHVVKYYGSYFKNTDLWIVMEYCGAGSVSDIIRLRNKTLTEDEIATILQSTLKGLEYLHFMRKIHRDIKAGNILLNTEGHAKLADFGVAGQLTDTMAKRNTVIGTPFWMAPEVIQEIGYNCVADIWSLGITAIEMAEGKPPYADIHPMRAIFMIPTNPPPTFRKPELWSDNFTDFVKQCLVKSPEQRATATQLLQHPFVRSAKGVSILRDLINEAMDVKLKRQESQQREVDQDDEENSEEDEMDSGTMVRAVGDEMGTVRVASTMTDGANTMIEHDDTLPSQLGTMVINAEDEEEEGTMKRRDETMQPAKPSFLEYFEQKEKENQINSFGKSVPGPLKNSSDWKIPQDGDYEFLKSWTVEDLQKRLLALDPMMEQEIEEIRQKYQSKRQPILDAIEAKKRRQQNF
notes: The tag could be cut by HRV 3C protease 'if desired'; also called kinase-dead full-length STK4; MST1; source: E. coli BL21 (DE3), purified (Ni-NTA, SEC)
B6: HOIP (residues 697–1072) (domain or fragment, UniProt Q96EP0 697-1072, looked up)
chain: QECAVCGWALPHNRMQALTSCECTICPDCFRQHFTIALKEKHITDMVCPACGRPDLTDDTQLLSYFSTLDIQLRESLEPDAYALFHKKLTEGVLMRDPKFLWCAQCSFGFIYEREQLEATCPQCHQTFCVRCKRQWEEQHRGRSCEDFQNWKRMNDPEYQAQGLAMYLQENGIDCPKCKFSYALARGGCMHFHCTQCRHQFCSGCYNAFYAKNKCPEPNCRVKKSLHGHHPRDCLFYLRDWTALRLQKLLQDNNVMFNTEPPAGARAVPGGGCRVIEQKEVPNGLRDEACGKETPAGYAGLCQAHYKEYLVSLINAHSLDPATLYEVEELETATERYLHVRPQPLAGEDPPAYQARLLQKLTEEVPLGQSIPRRRK
notes: also called RING1-IBR-RING2-LDD; HOIP RBR-LDD; source: E. coli BL21 (DE3), purified (glutathione resin, SEC)

Tests used:
HOIP (residues 480–1072) = target: T1, HOIP (residues 480–1072) (UniProt Q96EP0 480-1072); test: SEC; each protein alone and the mixture at matched concentrations on Superdex 200 Increase 10/300 GL or Superdex 75 Increase 10/300 GL; a forward shift or increase of the peak read qualitatively; fractions on SDS-PAGE (Fig. 1c: 20 μM HOIP RING2-LDD, 30 μM STK4 KD, Superdex 75 Increase); details: both partners purified
T1 construct: source: E. coli BL21 (DE3), purified (glutathione resin, SEC)
T1 sequence (looked up): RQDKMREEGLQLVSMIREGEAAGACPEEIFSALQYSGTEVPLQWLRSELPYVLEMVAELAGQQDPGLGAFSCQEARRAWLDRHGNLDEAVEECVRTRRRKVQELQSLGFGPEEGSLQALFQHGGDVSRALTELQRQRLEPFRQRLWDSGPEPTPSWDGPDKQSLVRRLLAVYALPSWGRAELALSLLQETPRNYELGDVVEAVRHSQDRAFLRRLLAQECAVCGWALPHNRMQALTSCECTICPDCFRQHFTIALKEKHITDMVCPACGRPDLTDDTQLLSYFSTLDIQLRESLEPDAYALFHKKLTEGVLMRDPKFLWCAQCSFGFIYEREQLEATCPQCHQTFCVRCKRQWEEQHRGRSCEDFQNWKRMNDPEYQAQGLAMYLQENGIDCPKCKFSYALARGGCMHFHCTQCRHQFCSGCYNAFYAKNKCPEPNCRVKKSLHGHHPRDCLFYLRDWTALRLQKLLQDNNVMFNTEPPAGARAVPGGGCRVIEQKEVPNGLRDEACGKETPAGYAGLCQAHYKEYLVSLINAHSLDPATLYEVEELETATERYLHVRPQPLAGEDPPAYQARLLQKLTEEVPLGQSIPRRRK

[1] = target: the molecule itself; test: AUC; sedimentation velocity, 42,000 rpm, 20 °C, c(s) distribution (SEDFIT); mixtures of HOIP RING2-LDD with STK4 KD at molar ratios 1:1 or 1:5
linear di-Ub (M1-2Ub) = target: T2, linear di-Ub (M1-2Ub) (UniProt P0CG48 1-76; P0CG48 1-76); test: SEC; each protein alone and the mixture at matched concentrations on Superdex 200 Increase 10/300 GL or Superdex 75 Increase 10/300 GL; a forward shift or increase of the peak read qualitatively; fractions on SDS-PAGE (Fig. 1c: 20 μM HOIP RING2-LDD, 30 μM STK4 KD, Superdex 75 Increase); details: both partners purified
T2 construct: ubiquitin, unit 1 of 2, units joined head to tail by peptide bonds (M1-linked); ubiquitin, unit 2 of 2; source: E. coli BL21 (DE3), purified

linear tetra-Ub (M1-4Ub) = target: T3, linear tetra-Ub (M1-4Ub) (UniProt P0CG48 1-76; P0CG48 1-76; P0CG48 1-76; P0CG48 1-76); test: as above; details: both partners purified
T3 construct: ubiquitin, unit 1 of 4, units joined head to tail by peptide bonds (M1-linked); ubiquitin, unit 2 of 4; ubiquitin, unit 3 of 4; ubiquitin, unit 4 of 4; source: E. coli BL21 (DE3), purified

UBE2L3 = target: T4, UBE2L3 (human, UniProt P68036 1-154); test: as above; details: both partners purified
T4 construct: UBE2L3 (E2), human; source: E. coli, purified
T4 sequence (P68036 whole entry): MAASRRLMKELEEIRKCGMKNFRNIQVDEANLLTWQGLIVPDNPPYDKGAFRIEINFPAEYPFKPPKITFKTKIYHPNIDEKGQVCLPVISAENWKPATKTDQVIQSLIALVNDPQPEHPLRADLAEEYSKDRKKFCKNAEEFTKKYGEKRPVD

M1-8Ub = target: T5, M1-8Ub (UniProt P0CG48 1-76; P0CG48 1-76; P0CG48 1-76; P0CG48 1-76; P0CG48 1-76; P0CG48 1-76; …); test: as above; details: both partners purified
T5 construct: ubiquitin, unit 1 of 8, units joined head to tail by peptide bonds (M1-linked); ubiquitin, unit 2 of 8; ubiquitin, unit 3 of 8; ubiquitin, unit 4 of 8; ubiquitin, unit 5 of 8; ubiquitin, unit 6 of 8; ubiquitin, unit 7 of 8; ubiquitin, unit 8 of 8; also called linear octa-ubiquitin; polyubiquitin chain; source: E. coli BL21 (DE3), purified

[2] = target: B1; test: ITC; MicroCal PEAQ-ITC, 25 °C; 20 mM Tris-HCl pH 7.5, 100 mM NaCl, 1 mM DTT; ~50 μM in the cell, ~500 μM in the syringe; one-site binding model; details: both partners purified
HOIP (residues 697–1072) = target: B6; test: SEC; each protein alone and the mixture at matched concentrations on Superdex 200 Increase 10/300 GL or Superdex 75 Increase 10/300 GL; a forward shift or increase of the peak read qualitatively; fractions on SDS-PAGE (Fig. 1c: 20 μM HOIP RING2-LDD, 30 μM STK4 KD, Superdex 75 Increase); details: both partners purified

B1
binding result (HOIP (residues 480–1072)): binds

B2: STK4 (residues 11–326) K59R (domain or fragment, human, UniProt Q13043 11-326, looked up)
chain: RRQLKKLDEDSLTKQPEEVFDVLEKLGEGSYGSVYKAIHKETGQIVAIRQVPVESDLQEIIKEISIMQQCDSPHVVKYYGSYFKNTDLWIVMEYCGAGSVSDIIRLRNKTLTEDEIATILQSTLKGLEYLHFMRKIHRDIKAGNILLNTEGHAKLADFGVAGQLTDTMAKRNTVIGTPFWMAPEVIQEIGYNCVADIWSLGITAIEMAEGKPPYADIHPMRAIFMIPTNPPPTFRKPELWSDNFTDFVKQCLVKSPEQRATATQLLQHPFVRSAKGVSILRDLINEAMDVKLKRQESQQREVDQDDEENSEEDEMD
notes: Monomer-dimer equilibrium in solution; dimer in the crystal; also called STK4 KD; source: E. coli BL21 (DE3), purified (Ni-NTA, SEC)
binding result [1]: binds

B3: HOIP (residues 697–1072) S1066E (domain or fragment, UniProt Q96EP0 697-1072, looked up)
chain: QECAVCGWALPHNRMQALTSCECTICPDCFRQHFTIALKEKHITDMVCPACGRPDLTDDTQLLSYFSTLDIQLRESLEPDAYALFHKKLTEGVLMRDPKFLWCAQCSFGFIYEREQLEATCPQCHQTFCVRCKRQWEEQHRGRSCEDFQNWKRMNDPEYQAQGLAMYLQENGIDCPKCKFSYALARGGCMHFHCTQCRHQFCSGCYNAFYAKNKCPEPNCRVKKSLHGHHPRDCLFYLRDWTALRLQKLLQDNNVMFNTEPPAGARAVPGGGCRVIEQKEVPNGLRDEACGKETPAGYAGLCQAHYKEYLVSLINAHSLDPATLYEVEELETATERYLHVRPQPLAGEDPPAYQARLLQKLTEEVPLGQEIPRRRK
notes: also called phosphomimic S1066E mutant; source: E. coli BL21 (DE3), purified
binding result (linear di-Ub (M1-2Ub)): binds | binding result (linear tetra-Ub (M1-4Ub)): binds

B4: HOIP RING1 (residues 697–793) T731A (domain or fragment, UniProt Q96EP0 697-793, looked up)
chain: QECAVCGWALPHNRMQALTSCECTICPDCFRQHFAIALKEKHITDMVCPACGRPDLTDDTQLLSYFSTLDIQLRESLEPDAYALFHKKLTEGVLMRD
notes: source: E. coli BL21 (DE3), purified
binding result (UBE2L3): binds

B5: HOIP (residues 697–852) (domain or fragment, UniProt Q96EP0 697-852, looked up)
chain: QECAVCGWALPHNRMQALTSCECTICPDCFRQHFTIALKEKHITDMVCPACGRPDLTDDTQLLSYFSTLDIQLRESLEPDAYALFHKKLTEGVLMRDPKFLWCAQCSFGFIYEREQLEATCPQCHQTFCVRCKRQWEEQHRGRSCEDFQNWKRMND
notes: The limits are printed for the M1-8Ub experiment; for the STK4 experiment the text says only 'the RING1-IBR region of HOIP'; also called HOIP RING1-IBR; RING1-IBR region; source: E. coli BL21 (DE3), purified (glutathione resin, SEC)
binding result (M1-8Ub): binds

B6
Kd [2]: ~102 µM

B7: STK4 (residues 1–326) K59R (domain or fragment, human, UniProt Q13043 1-326, looked up)
chain: METVQLRNPPRRQLKKLDEDSLTKQPEEVFDVLEKLGEGSYGSVYKAIHKETGQIVAIRQVPVESDLQEIIKEISIMQQCDSPHVVKYYGSYFKNTDLWIVMEYCGAGSVSDIIRLRNKTLTEDEIATILQSTLKGLEYLHFMRKIHRDIKAGNILLNTEGHAKLADFGVAGQLTDTMAKRNTVIGTPFWMAPEVIQEIGYNCVADIWSLGITAIEMAEGKPPYADIHPMRAIFMIPTNPPPTFRKPELWSDNFTDFVKQCLVKSPEQRATATQLLQHPFVRSAKGVSILRDLINEAMDVKLKRQESQQREVDQDDEENSEEDEMD
notes: also called KD; source: E. coli BL21 (DE3), purified (Ni-NTA, SEC)
binding result (HOIP (residues 697–1072)): binds
